Measured values from patent publication US6815189B1, “Gene from acremonium chrysogenum encoding a protein with cephalosporin C acetylhydrolase activity and methods of use of such gene” (Antibiotics, S.A.U., priority 1999, dated 2004).

Test system: [H][C@]12SCC(COC(C)=O)=C(C(=O)O)N1C(=O)[C@H]2NC(=O)CCC[C@@H](N)C(=O)O
Assay: Effect of substrate concentration on CPC-AH B activity (Lineweaver-Burk)
Assay type: biochemical, Acremonium chrysogenum
Conditions: other: CPC-AH B vs. CPC, 37.0 °C
Method: To quantify the enzymatic degradation of the CPC, a reaction mixture was prepared, based on that described by Fujisawa et al. (1975, Agric. Biol. Chem. 39: 1303-1309) that contained, in a total volume of 100 μl: Tris-HCl, pH 8.0, 50 mM; CPC, 20 mM and culture supernatant 75 μl. The mixture was incubated for 60 minutes at 37° C. and the reaction was stopped by adding 100 μl of methanol. The proteins precipitated were removed by centrifugation for 5 minutes at 14 000 rev/min in an Eppendorff centrifuge. Production of DAC was analysed by injecting 100 μl of the reaction mixture in an HPLC Beckman System Gold equipped with a μBondapack C18 column. Elution was performed using a mixture of solvents A (10 mM sodium acetate—acetic acid, pH 4.5) and B (100% acetonitrile) using a linear gradient from 0 to 3% of solvent B between the 0 and 2 minutes and constant 3% from minute 2 to 15 at a flow of 1.3 ml/min. The cephalosporins are detected by their absorbance at 260 nm. In these conditions DAC is eluted with a retention time of 3.1 min whereas for CPC this occurs at 8.3 min. Both compounds were identified by co-elution with standard samples of CPC and DAC.
With fractions obtained from ion exchange separation, tests of CPC-AH activity were performed by HPLC, varying the concentration of CPC. […]

CPC-AH B (Hapsidospora chrysogenum ATCC 11550), sequence (chain, as listed by the source): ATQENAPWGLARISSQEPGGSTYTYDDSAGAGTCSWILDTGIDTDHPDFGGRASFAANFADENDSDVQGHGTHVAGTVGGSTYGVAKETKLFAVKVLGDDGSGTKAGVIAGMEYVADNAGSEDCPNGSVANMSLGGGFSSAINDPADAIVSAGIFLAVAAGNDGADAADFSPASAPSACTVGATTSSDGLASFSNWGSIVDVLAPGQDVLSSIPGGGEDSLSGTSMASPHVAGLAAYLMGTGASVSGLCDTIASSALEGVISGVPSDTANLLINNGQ

## CPC-AH B (Hapsidospora chrysogenum ATCC 11550)
  Km: 33.72 mM
  Vmax: 91.95 pKat/mg
